# Results taken from the supplement of paper PMC7877785.
# ± gives the uncertainty stated by the source.
# Assay: self-splicing fitness, log relative to wild type (ln ratio); higher = more splicing; Tetrahymena group I intron in knt gene, E. coli kanamycin selection, DiMSum; sequences stand for … in CUCUCU…GGAGGGAAAAGUUAUCAGGCAUGCACCUGGUAGCUAGUCUUUAAACCAAUAGAUUGCAUCGGUUUAAAAGGCAAGACCGUCAAAUUGCGGGAAAGGGGUCAACAGCCGUUCAGUACCAAGUCUCAGGGGAAACUUUGAGAUGGCCUUGCAAAGGGUAUGGUAAUAAGCUGACGGACAUGGUCCUAACCACGCAGCCAAGUCCUAAGUCAACAGAUCUUCUGUUGAUAUGGAUGCAGUUCACAGACUAAAUGUCGGUCGGGGAAGAUGUAUUCUUCUCAUAAGAUAUAGUCGGACCUCUCCUUAAUGGGAGCUAGCGGAUGAAGUGAUGCAACACUGGAGCCGCUGGGAACUAAUUUGUAUGCGAAAGUAUAUUGAUUAGUUUUGGAGUACUCGUGGUCG
# Summary of the method: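 A randomised library covering all eight P1ex-region intron nucleotides was built with the intron in the knt kanamycin-resistance gene on pET-22b(+) and held in E. coli BL21(DE3). Cells were grown overnight at 37°C or 30°C on LB agar, with or without 25 μg/mL kanamycin, plus 100 μg/mL carbenicillin, 50 μM IPTG and 0.2% rhamnose, and pooled colonies were amplicon-sequenced on an Illumina HiSeq 2500. DiMSum fitness is the error-weighted combination of wild-type-normalised replicate fold changes, kanamycin versus none.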
Sequence,self-splicing fitness (ln) (30 °C),self-splicing fitness (ln) (37 °C)
AACAAGCAAUAUUACGAGCG,-0.912 ± 0.057,0.125 ± 0.078
AACAAGCAAUAUUACGAUGA,-0.584 ± 0.072,-0.801 ± 0.073
AACAAGCAAUAUUACGAUUC,-1.61 ± 0.11,-0.551 ± 0.12
AACAAGCAAUAUUACGCAUU,-2.01 ± 0.069,-1.32 ± 0.091
AACAAGCAAUAUUACGCCCG,-0.206 ± 0.11,-0.347 ± 0.17
AACAAGCAAUAUUACGCCGU,-1.5 ± 0.096,-0.696 ± 0.094
AACAAGCAAUAUUACGCGAC,-2.41 ± 0.21,-1.47 ± 0.21
AACAAGCAAUAUUACGCGUA,-1.13 ± 0.067,-0.921 ± 0.078
AACAAGCAAUAUUACGCUGA,-1.34 ± 0.087,-1.01 ± 0.11
AACAAGCAAUAUUACGGAGU,-2.72 ± 0.07,-1.58 ± 0.078
AACAAGCAAUAUUACGGCAA,-0.882 ± 0.069,0.119 ± 0.077
AACAAGCAAUAUUACGGCAC,-0.526 ± 0.067,-0.265 ± 0.1
AACAAGCAAUAUUACGGUUC,-2.97 ± 0.12,-2.43 ± 0.12
AACAAGCAAUAUUACGUAAU,-1.98 ± 0.074,-0.78 ± 0.08
AACAAGCAAUAUUACGUCAA,-1.68 ± 0.094,-1.59 ± 0.11
AACAAGCAAUAUUACGUCAU,-2.35 ± 0.075,-1.59 ± 0.082
AACCAGCAAUAUUACGAACG,-1.27 ± 0.08,-1.25 ± 0.089
AACCAGCAAUAUUACGAAUG,-2.22 ± 0.089,-1.89 ± 0.083
AACCAGCAAUAUUACGACUC,-0.597 ± 0.053,-0.327 ± 0.066
AACCAGCAAUAUUACGACUG,-3.11 ± 0.15,-1.83 ± 0.12
AACCAGCAAUAUUACGAGAC,-3.67 ± 0.39,-1.71 ± 0.18
AACCAGCAAUAUUACGAGGC,-3.43 ± 0.23,-2.2 ± 0.18
AACCAGCAAUAUUACGAGUG,-0.0963 ± 0.045,-0.0773 ± 0.06
AACCAGCAAUAUUACGAUCA,-0.638 ± 0.1,-0.0996 ± 0.11
AACCAGCAAUAUUACGAUGU,-0.353 ± 0.039,0.149 ± 0.054
AACCAGCAAUAUUACGAUUU,0.157 ± 0.044,-0.0356 ± 0.058

Sequence,self-splicing fitness (ln) (30 °C),self-splicing fitness (ln) (37 °C)
AACCAGCAAUAUUACGCCGC,-4.1 ± 0.3,-2.45 ± 0.35
AACCAGCAAUAUUACGCCUC,-0.868 ± 0.13,-0.399 ± 0.16
AACCAGCAAUAUUACGCGCA,-0.111 ± 0.068,-0.00763 ± 0.089
AACCAGCAAUAUUACGCUCA,-0.325 ± 0.049,0.493 ± 0.072
AACCAGCAAUAUUACGCUGA,-2.56 ± 0.1,-1.51 ± 0.094
AACCAGCAAUAUUACGCUUG,-1.94 ± 0.089,-1.07 ± 0.11
AACCAGCAAUAUUACGGAAA,-1.73 ± 0.097,-0.275 ± 0.088
AACCAGCAAUAUUACGGACU,-0.113 ± 0.061,0.226 ± 0.082
AACCAGCAAUAUUACGGCGU,0.196 ± 0.054,0.259 ± 0.068
AACCAGCAAUAUUACGGGAC,-2.39 ± 0.094,-2.11 ± 0.09
AACCAGCAAUAUUACGGUGC,-3.48 ± 0.16,-1.75 ± 0.13
AACCAGCAAUAUUACGGUGU,-1.87 ± 0.061,-2.56 ± 0.11
AACCAGCAAUAUUACGGUUA,-2.14 ± 0.099,-0.269 ± 0.084
AACCAGCAAUAUUACGUACG,-1.42 ± 0.063,-0.431 ± 0.067
AACCAGCAAUAUUACGUCAG,-2.3 ± 0.079,-1.49 ± 0.086
AACCAGCAAUAUUACGUCAU,-1.23 ± 0.063,-1.14 ± 0.067
AACCAGCAAUAUUACGUCGG,-3.79 ± 0.12,-1.41 ± 0.094
AACCAGCAAUAUUACGUUGA,-1.65 ± 0.083,-0.421 ± 0.087
AACGAGCAAUAUUACGAACG,-3.03 ± 0.45,-1.37 ± 0.28
AACGAGCAAUAUUACGACAU,-2.2 ± 0.015,-1.33 ± 0.033
AACGAGCAAUAUUACGAGGU,-3.56 ± 0.18,-1.96 ± 0.16
AACGAGCAAUAUUACGAUAC,-2.52 ± 0.37,-1.97 ± 0.46
AACGAGCAAUAUUACGAUAU,-3.13 ± 0.21,-1.3 ± 0.17
AACGAGCAAUAUUACGAUCG,-1.19 ± 0.14,-1.06 ± 0.16
AACGAGCAAUAUUACGAUUC,,0.32 ± 0.17
AACGAGCAAUAUUACGCAUG,-4.23 ± 0.31,-2.76 ± 0.29

Sequence,self-splicing fitness (ln) (30 °C),self-splicing fitness (ln) (37 °C)
AACGAGCAAUAUUACGGCCG,-1.2 ± 0.12,-1.07 ± 0.21
AACGAGCAAUAUUACGUGCU,-3.09 ± 0.21,-2.16 ± 0.28
AACGAGCAAUAUUACGUGGG,-3.94 ± 0.15,-2.7 ± 0.12
AACGAGCAAUAUUACGUUCG,-3 ± 0.48,-1.19 ± 0.2
AACUAGCAAUAUUACGAAUC,-2.81 ± 0.17,-1.27 ± 0.19
AACUAGCAAUAUUACGACAA,-0.829 ± 0.064,-0.603 ± 0.066
AACUAGCAAUAUUACGACAU,-0.187 ± 0.011,0.0705 ± 0.032
AACUAGCAAUAUUACGAGAA,-2.64 ± 0.48,-1.71 ± 0.22
AACUAGCAAUAUUACGAGGG,-2.13 ± 0.12,-2.24 ± 0.19
AACUAGCAAUAUUACGAGGU,-3.14 ± 0.3,-2.01 ± 0.25
AACUAGCAAUAUUACGAUAA,-1.41 ± 0.099,-0.94 ± 0.099
AACUAGCAAUAUUACGAUGA,-0.741 ± 0.079,-0.0286 ± 0.08
AACUAGCAAUAUUACGCCCU,0.324 ± 0.067,-0.165 ± 0.08
AACUAGCAAUAUUACGCCUC,-2.29 ± 0.3,-0.975 ± 0.24
AACUAGCAAUAUUACGCGCA,-0.47 ± 0.099,0.116 ± 0.12
AACUAGCAAUAUUACGGACG,-1.21 ± 0.06,-0.904 ± 0.072
AACUAGCAAUAUUACGGAGA,-2.62 ± 0.23,-1.35 ± 0.2
AACUAGCAAUAUUACGGAGU,-2.95 ± 0.13,-1.42 ± 0.13
AACUAGCAAUAUUACGGGAG,-1.35 ± 0.11,-1.21 ± 0.13
AACUAGCAAUAUUACGGGCC,-1.81 ± 0.12,-1.36 ± 0.14
AACUAGCAAUAUUACGGGUU,-3.03 ± 0.12,-2.82 ± 0.17
AACUAGCAAUAUUACGGUAC,-3.39 ± 0.28,-1.9 ± 0.17
AACUAGCAAUAUUACGGUCC,-0.628 ± 0.13,-0.637 ± 0.15
AACUAGCAAUAUUACGGUGG,-2.14 ± 0.079,-0.926 ± 0.086
